{"source": "IntAct's records for PubMed 31515488", "parents": {"B1": {"name": "Isoform 1 of Nuclear RNA export factor 3 (Homo sapiens), Q9H4D5-1 (parent)", "chain": "MSLPSGHTTGHTDQVVQRRARCWDIYQRRFSSRSEPVNPGMHSSSHQQQDGDAAMHGAHMDSPVRYTPYTISPYNRKGSFRKQDQTHVNMEREQKPPERRMEGNMPDGTLGSWFKITVPFGIKYNEKWLLNLIQNECSVPFVPVEFHYENMHASFFVENASIAYALKNVSGKIWDEDNEKISIFVNPAGIPHFVHRELKSEKVEQIKLAMNQQCDVSQEALDIQRLPFYPDMVNRDTKMASNPRKCMAASLDVHEENIPTVMSAGEMDKWKGIEPGEKCADRSPVCTTFSDTSSNINSILELFPKLLCLDGQQSPRATLCGTEAHKRLPTCKGSFFGSEMLKNLVLQFLQQYYLIYDSGDRQGLLSAYHDEACFSLSIPFNPEDSAPSSFCKFFKDSRNIKILKDPYLRGELLKHTKLDIVDSLSALPKTQHDLSSFLVDMWYQTEWMLCFSVNGVFKEVEGQSQGSVLAFTRTFIATPGSSSSLCIVNDKLFVRDTSHQGTQSALFTLVPTAFSSSVPAFSQEQQKMLPS", "partner": "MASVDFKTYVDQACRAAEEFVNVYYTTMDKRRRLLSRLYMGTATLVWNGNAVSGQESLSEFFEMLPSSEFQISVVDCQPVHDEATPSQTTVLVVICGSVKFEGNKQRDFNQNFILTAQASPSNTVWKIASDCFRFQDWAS"}, "B2": {"name": "Protein BANP (Homo sapiens), Q8N9N5-2 (parent)", "chain": "MMSEHDLADVVQIAVEDLSPDHPVVLENHVVTDEDEPALKRQRLEINCQDPSIKSFLYSINQTICLRLDSIEAKLQALEATCKSLEEKLDLVTNKQHSPIQVPMVAGSPLGATQTCNKVRCAVPGRRQNTIVVKVPGQEDSHHEDGESGSEASDSVSSCGQAGSQSIGSNVTLITLNSEEDYPNGTWLGDENNPEMRVRCAIIPSDMLHISTNCRTAEKMALTLLDYLFHREVQAVSNLSGQGKHGKKQLDPLTIYGIRCHLFYKFGITESDWYRIKQSIDSKCRTAWRRKQRGQSLAVKSFSRRTPNSSSYCPSEPMMSTPPPASELPQPQPQPQALHYALANAQQVQIHQIGEDGQVQVIPQGHLHIAQVPQGEQVQITQDSEGNLQIHHVGQDGQVLQGAQLIAVASSDPAAAGVDGSPLQGSDIQVQYVQLAPVSDHTAGAQTAEALQPTLQPEMQLEHGAIQIQ"}, "B3": {"name": "Centrosomal protein of 55 kDa (Homo sapiens), Q53EZ4 (parent)", "chain": "MSSRSTKDLIKSKWGSKPSNSKSETTLEKLKGEIAHLKTSVDEITSGKGKLTDKERHRLLEKIRVLEAEKEKNAYQLTEKDKEIQRLRDQLKARYSTTTLLEQLEETTREGERREQVLKALSEEKDVLKQQLSAATSRIAELESKTNTLRLSQTVAPNCFNSSINNIHEMEIQLKDALEKNQQWLVYDQQREVYVKGLLAKIFELEKKTETAAHSLPQQTKKPESEGYLQEEKQKCYNDLLASAKKDLEVERQTITQLSFELSEFRRKYEETQKEVHNLNQLLYSQRRADVQHLEDDRHKTEKIQKLREENDIARGKLEEEKKRSEELLSQVQFLYTSLLKQQEEQTRVALLEQQMQACTLDFENEKLDRQHVQHQLHVILKELRKARNQITQLESLKQLHEFAITEPLVTFQGETENREKVAASPKSPTAALNESLVECPKCNIQYPATEHRDLLVHVEYCSK"}, "B4": {"name": "Transcription factor 4 (Homo sapiens), P15884 (parent)", "chain": "MHHQQRMAALGTDKELSDLLDFSAMFSPPVSSGKNGPTSLASGHFTGSNVEDRSSSGSWGNGGHPSPSRNYGDGTPYDHMTSRDLGSHDNLSPPFVNSRIQSKTERGSYSSYGRESNLQGCHQQSLLGGDMDMGNPGTLSPTKPGSQYYQYSSNNPRRRPLHSSAMEVQTKKVRKVPPGLPSSVYAPSASTADYNRDSPGYPSSKPATSTFPSSFFMQDGHHSSDPWSSSSGMNQPGYAGMLGNSSHIPQSSSYCSLHPHERLSYPSHSSADINSSLPPMSTFHRSGTNHYSTSSCTPPANGTDSIMANRGSGAAGSSQTGDALGKALASIYSPDHTNNSFSSNPSTPVGSPPSLSAGTAVWSRNGGQASSSPNYEGPLHSLQSRIEDRLERLDDAIHVLRNHAVGPSTAMPGGHGDMHGIIGPSHNGAMGGLGSGYGTGLLSANRHSLMVGTHREDGVALRGSHSLLPNQVPVPQLPVQSATSPDLNPPQDPYRGMPPGLQGQSVSSGSSEIKSDDEGDENLQDTKSSEDKKLDDDKKDIKSITSNNDDEDLTPEQKAEREKERRMANNARERLRVRDINEAFKELGRMVQLHLKSDKPQTKLLILHQAVAVILSLEQQVRERNLNPKAACLKRREEEKVSSEPPPLSLAGPHPGMGDASNHMGQM"}}}
{"variants_of": "B1", "settings": "with nxt1_human NXT1, Q9UKK6"}
{"variant": "T9K", "effect of a mutation on the interaction": "with no effect"}
{"variants_of": "B2", "settings": "with kcc2d_human CAMK2D"}
{"variant": "A162V", "effect of a mutation on the interaction": "with no effect"}
{"variants_of": "B2", "settings": "with FAM117B"}
{"variant": "A162V", "effect of a mutation on the interaction": "with no effect"}
{"variants_of": "B2", "settings": "with aakb2_human PRKAB2, O43741"}
{"variant": "A162V", "effect of a mutation on the interaction": "with no effect"}
{"variants_of": "B2", "settings": "with pf21a_human PHF21A"}
{"variant": "A162V", "effect of a mutation on the interaction": "with no effect"}
{"variants_of": "B3", "settings": "with dpolm_human POLM"}
{"variant": "A244P", "effect of a mutation on the interaction": "with no effect"}
{"variant": "C236R", "effect of a mutation on the interaction": "with no effect"}
{"variant": "H57Q", "effect of a mutation on the interaction": "with no effect"}
{"variant": "R348K", "effect of a mutation on the interaction": "with no effect"}
{"variants_of": "B3", "settings": "with tead4_human TEAD4, Q15561"}
{"variant": "A244P", "effect of a mutation on the interaction": "with no effect"}
{"variant": "C236R", "effect of a mutation on the interaction": "with no effect"}
{"variant": "H57Q", "effect of a mutation on the interaction": "with no effect"}
{"variant": "R348K", "effect of a mutation on the interaction": "with no effect"}
{"variants_of": "B3", "settings": "with anx11_human ANXA11, P50995"}
{"variant": "A244P", "effect of a mutation on the interaction": "disrupting interaction strength"}
{"variant": "C236R", "effect of a mutation on the interaction": "with no effect"}
{"variant": "H57Q", "effect of a mutation on the interaction": "with no effect"}
{"variant": "R348K", "effect of a mutation on the interaction": "with no effect"}
{"variants_of": "B3", "settings": "with pdc6i_human PDCD6IP"}
{"variant": "A244P", "effect of a mutation on the interaction": "with no effect"}
{"variant": "C236R", "effect of a mutation on the interaction": "with no effect"}
{"variant": "H57Q", "effect of a mutation on the interaction": "with no effect"}
{"variant": "R348K", "effect of a mutation on the interaction": "with no effect"}
{"variant": "R138Q", "effect of a mutation on the interaction": "with no effect"}
{"variant": "L59F", "effect of a mutation on the interaction": "with no effect"}
{"variant": "E321K", "effect of a mutation on the interaction": "with no effect"}
{"variants_of": "B4", "settings": "with defi6_human DEF6, Q9H4E7"}
{"variant": "N90S", "effect of a mutation on the interaction": "with no effect"}
